Experimental data as given in the supplement of paper PMC10724198.
± gives the standard deviation of the averaged measurements.

Tested on: Saccharomyces cerevisiae
Assay: protein stability index of tFT-peptide fusion (C-terminal peptide) (PSI (0-1 scale)); higher = more stable (slower turnover)
Conditions: genetic background: wild type; temperature: 30 C
Method: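 MPS profiling in S. cerevisiae of the yeast C-terminome library: the last 12 aa of each annotated ORF are fused to the C-terminus of a sfGFP-mCherry timer, after a GGGS linker. Cells are FACS-sorted into 8 mCherry/sfGFP bins and deep-sequenced. PSI runs from 0 (unstable) to 1 (stable); wild type and das1Δ backgrounds, two technical replicates each.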

Sequence | protein stability index
HENSKCFTHYLI [AFR1 C-terminal 12 aa] | 0.6605 ± 0.0065
HERKRNKVLNTT [CMR3 C-terminal 12 aa] | 0.661 ± 0.043
HFYDRTNDLTNL [YNL144C C-terminal 12 aa] | 0.68 ± 0.039
HIFEKKIFHTNL [YOL097W-A C-terminal 12 aa] | 0.65 ± 0.027
HLAQMKMEQLLK [APQ12 C-terminal 12 aa] | 0.67 ± 0.014
HLCWLRCACDGP [YLR154C-G C-terminal 12 aa] | 0.699 ± 0.022
HLSMVCDLELQL [NGL2 C-terminal 12 aa] | 0.659 ± 0.045
HNLESLVVAFNE [SPO16 C-terminal 12 aa] | 0.717 ± 0.064
HPTSAEELVTMR [GLR1 C-terminal 12 aa] | 0.693 ± 0.071
HYPLNSIPFTVT [YMR326C C-terminal 12 aa] | 0.775 ± 0.087
IADELDWLKFGI [GLN3 C-terminal 12 aa] | 0.882 ± 0.019
ICAWLLFFETIH [BST1 C-terminal 12 aa] | 0.521 ± 0.059
IDIPVQVKNSFI [YNR068C C-terminal 12 aa] | 0.706 ± 0.051
IDLSKKLSFYNY [GMH1 C-terminal 12 aa] | 0.554 ± 0.0067
IDNVIISGKDEY [CCT5 C-terminal 12 aa] | 0.6529 ± 0.0048
IDSLIENLRFQI [DBF4 C-terminal 12 aa] | 0.678 ± 0.049
IEELLAGIRMSI [BIT61 C-terminal 12 aa] | 0.706 ± 0.037
IEHVKYDNIVSP [UBC12 C-terminal 12 aa] | 0.675 ± 0.011
IFMCIILANKHF [YFR052C-A C-terminal 12 aa] | 0.22 ± 0.009
IFQSAISKAIRG [YBR109W-A C-terminal 12 aa] | 0.682 ± 0.0053
IFRDYFYKSPSP [PIG1 C-terminal 12 aa] | 0.763 ± 0.034

Sequence | protein stability index
IFSSLVHYCNAG [LST4 C-terminal 12 aa] | 0.73 ± 0.0085
IFWLALIYNAIQ [LOH1 C-terminal 12 aa] | 0.43 ± 0.027
IGDFFKNLNMAK [NUP159 C-terminal 12 aa] | 0.743 ± 0.054
IGGLLKPSELDD [CRM1 C-terminal 12 aa] | 0.696 ± 0.033
IGWSVFAEWLCV [CYK3 C-terminal 12 aa] | 0.5137 ± 0.003
IHRSVSELSRLH [MBB1 C-terminal 12 aa] | 0.689 ± 0.025
IHSTKEEKNCNH [YDR095C C-terminal 12 aa] | 0.683 ± 0.029
IIAIVFKILSPN [FAR10 C-terminal 12 aa] | 0.347 ± 0.031
IIFVVLLCKKSR [ASG7 C-terminal 12 aa] | 0.309 ± 0.019
IIQQNLKKIGII [GPA1 C-terminal 12 aa] | 0.195 ± 0.011
IITGSTSTSSSN [MED8 C-terminal 12 aa] | 0.7067 ± 0.00076
IKELENSRHEQS [MNN1 C-terminal 12 aa] | 0.6866 ± 7.9e-05
IKPSAEVHINAL [VMA10 C-terminal 12 aa] | 0.743 ± 0.092
IKPSWENEKNIS [ARG2 C-terminal 12 aa] | 0.684 ± 0.028
ILGAYLIDCVCC [YGL069C C-terminal 12 aa] | 0.644 ± 0.1
ILGNMEKKKNQD [EPS1 C-terminal 12 aa] | 0.751 ± 0.013
ILWLKLEKRIEN [YLR339C C-terminal 12 aa] | 0.703 ± 0.01
IMLTLLMFTGAV [PLB3 C-terminal 12 aa] | 0.396 ± 0.0091
INIQQFAALLSK [CMD1 C-terminal 12 aa] | 0.68 ± 0.0055
IPAKKTKISLDY [ELP4 C-terminal 12 aa] | 0.677 ± 0.018
IPELHNLKPTCV [YBR238C C-terminal 12 aa] | 0.687 ± 0.016

Sequence | protein stability index
IPMTLTTLSTVF [UPA2 C-terminal 12 aa] | 0.628 ± 0.012
IQKLEEARNPQF [UPS1 C-terminal 12 aa] | 0.718 ± 0.034
IRRHAYYNQDDD [SLA2 C-terminal 12 aa] | 0.664 ± 0.0037
ITERLFNAALDD [YBR232C C-terminal 12 aa] | 0.708 ± 0.018
ITGLKNNIQKCS [YER068C-A C-terminal 12 aa] | 0.253 ± 0.014
ITHLKAILPKYL [CCA1 C-terminal 12 aa] | 0.324 ± 0.0095
ITSLKSDEYLVQ [RET2 C-terminal 12 aa] | 0.724 ± 0.085
IVHKSNFINNKK [OXA1 C-terminal 12 aa] | 0.6943 ± 0.0055
IVLPMIKDYLFS [HLJ1 C-terminal 12 aa] | 0.702 ± 0.0079
IWKEVKRHQDFA [ATG20 C-terminal 12 aa] | 0.734 ± 0.0089
IWKPAGNLVGHS [MSI1 C-terminal 12 aa] | 0.7019 ± 0.0026
IYDWAGEYPLAV [SHM2 C-terminal 12 aa] | 0.737 ± 0.0049
IYHKDGNKVLKE [YDR391C C-terminal 12 aa] | 0.6606 ± 0.0043
IYKLEYYLLTMQ [YOR199W C-terminal 12 aa] | 0.526 ± 0.034
IYRRRKNKIFFW [RCK1 C-terminal 12 aa] | 0.692 ± 0.045
KAAINQQSTPLN [RPH1 C-terminal 12 aa] | 0.728 ± 0.053
KAKFEGKKIKFD [BUD22 C-terminal 12 aa] | 0.7092 ± 0.0046
KALIQRKGGKLE [RPL26A C-terminal 12 aa] | 0.688 ± 0.037
KDEDEEADEDMK [PRE9 C-terminal 12 aa] | 0.694 ± 0.014
KDRCGNVPHQSR [MRN1 C-terminal 12 aa] | 0.716 ± 0.08
KEASRRFDAGKI [SOD2 C-terminal 12 aa] | 0.6795 ± 0.0053

Sequence | protein stability index
KEKKDKKKKSKD [NOP56 C-terminal 12 aa] | 0.661 ± 0.022
KELEFGLDRKYF [SLT2 C-terminal 12 aa] | 0.68 ± 0.04
KELVKRRIVGEV [AEP3 C-terminal 12 aa] | 0.72 ± 0.064
KGARSRFQKSYR [RPS16A C-terminal 12 aa] | 0.7188 ± 0.0055
KGTFLANLTDLI [SWF1 C-terminal 12 aa] | 0.665 ± 0.014
KHGTMQFYWRKT [YOR225W C-terminal 12 aa] | 0.386 ± 0.003
KHGVSAVKRYLR [CBP1 C-terminal 12 aa] | 0.68 ± 0.0089
KKDKPEGWDRLP [KTR6 C-terminal 12 aa] | 0.711 ± 0.0073
KKHSMKSRFKPY [YNL035C C-terminal 12 aa] | 0.712 ± 0.0099
KKKEDKGGLQRS [VHS3 C-terminal 12 aa] | 0.697 ± 0.061
KKKNRSKIKFNY [PTH4 C-terminal 12 aa] | 0.589 ± 0.011
KKSPGGPRQRIK [MAP1 C-terminal 12 aa] | 0.692 ± 0.046
KLEKLKAEKTRR [YDL085C-A C-terminal 12 aa] | 0.673 ± 0.031
KLMEAIFRIRTI [YKL106C-A C-terminal 12 aa] | 0.152 ± 0.0039
KLSNWLFGWNDL [ASM4 C-terminal 12 aa] | 0.746 ± 0.052
KLVDVRKVYYSS [MRPS5 C-terminal 12 aa] | 0.6234 ± 0.0043
KLYKNSDFNSEK [RRG7 C-terminal 12 aa] | 0.694 ± 0.017
KMDKRAKTSDSA [RPL8B C-terminal 12 aa] | 0.6802 ± 0.0027
KNLADIHKIMGF [MSW1 C-terminal 12 aa] | 0.709 ± 0.052
